Measurements as given in PMC10465447, “Magnetically controlled graphene field-effect transistor biosensor for highly sensitive detection of cardiac troponin I”.

Biological target: cardiac troponin I (CTNI) (UniProt P19429 2-210)
Test: pull-down with anti-CTNI antibody magnetic beads, supernatant fluorescence; 2 uM aptamer (10 uL), 10 uM CTNI (100 uL); fluorescence about 1400 to 1050 A.U.; PBS pH 7.4 washes; binding buffer not stated; room temperature 2 h (solution pull-down); 30 min bead reaction on sensor
Details: protein: commercial; label: 3'-6-FAM

Sequence of cardiac troponin I (CTNI) (P19429 2-210): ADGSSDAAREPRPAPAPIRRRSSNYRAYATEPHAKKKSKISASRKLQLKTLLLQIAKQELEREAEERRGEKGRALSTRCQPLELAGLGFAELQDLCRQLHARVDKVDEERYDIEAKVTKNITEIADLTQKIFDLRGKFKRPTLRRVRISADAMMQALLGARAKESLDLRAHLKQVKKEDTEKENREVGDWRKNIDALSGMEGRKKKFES

CGTGCAGTACGCCAACCTTTCTCATGCGCTGCCCCTCTTA (ssDNA, 5'-NH2) [CTNI aptamer]: binds.
